# Laboratory results from patent publication US20220017623A1, “TREATMENT OF CANCER USING A CEA CD3 BISPECIFIC ANTIBODY AND A WNT SIGNALING INHIBITOR” (Hoffmann-La Roche Inc., priority 2019, published 2022).
# Biological target: Carcinoembryonic antigen (CEA) (human) (UniProt P06731)
# Test: cell-based or functional assay
# Chain of Carcinoembryonic antigen (CEA) (human) (P06731 35-702): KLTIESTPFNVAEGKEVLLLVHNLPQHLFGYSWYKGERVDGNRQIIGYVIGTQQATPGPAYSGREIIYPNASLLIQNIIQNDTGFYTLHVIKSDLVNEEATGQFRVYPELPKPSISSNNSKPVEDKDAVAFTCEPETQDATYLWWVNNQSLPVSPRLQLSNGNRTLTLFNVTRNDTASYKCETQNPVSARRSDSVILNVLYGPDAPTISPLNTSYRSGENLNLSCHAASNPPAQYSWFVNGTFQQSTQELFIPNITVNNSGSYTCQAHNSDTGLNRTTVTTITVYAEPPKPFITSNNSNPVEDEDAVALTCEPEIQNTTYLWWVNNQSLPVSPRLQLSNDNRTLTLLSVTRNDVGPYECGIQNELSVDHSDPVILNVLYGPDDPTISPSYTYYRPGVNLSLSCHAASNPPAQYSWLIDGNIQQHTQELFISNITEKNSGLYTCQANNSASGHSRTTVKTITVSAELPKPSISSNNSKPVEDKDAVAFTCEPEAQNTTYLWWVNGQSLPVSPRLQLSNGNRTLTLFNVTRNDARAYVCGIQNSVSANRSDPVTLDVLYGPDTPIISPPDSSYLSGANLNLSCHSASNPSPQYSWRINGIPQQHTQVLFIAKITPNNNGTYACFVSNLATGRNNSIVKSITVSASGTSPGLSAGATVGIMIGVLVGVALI
substance,measurement,value
cibisatamab (bispecific antibody),Pearson correlation of growth reduction with the fraction of CEAhi cancer cells in each PDO,0.915 r
